Reference: paper PMC4786724, “NdhM Subunit Is Required for the Stability and the Function of NAD(P)H Dehydrogenase Complexes Involved in CO2 Uptake in Synechocystis sp. Strain PCC 6803* ^([image sbox.jpg])” (The Journal of Biological Chemistry, 2015)

Tests used:
[1] = biological target: T1, NdhI-His6 (Synechocystis sp. PCC 6803, UniProt P26525 1-193); test: pull-down; GST-NdhM on glutathione-Sepharose 4B resin as bait, His-tagged Ndh subunits as prey; 2 h at 4 °C in 20 mM Tris-HCl pH 7.5, 100 mM NaCl, 0.1 mM EDTA, 0.2% Triton, 10% glycerol; washed five times with 300 mM NaCl, 0.5% Nonidet P-40; eluates blotted with anti-His antibody; conditions: both partners purified
T1 construct: NdhI subunit of NDH-1, Synechocystis sp; PCC 6803; fragment containing ndhI cloned into pET28a; also called His-tagged NdhI; source: E. coli BL21(DE3) pLysS, purified (nickel column)

[2] = biological target: T2, NdhH-His6 (Synechocystis sp. PCC 6803, UniProt P27724 1-394); test: as above; conditions: both partners purified
T2 construct: NdhH subunit of NDH-1, Synechocystis sp; PCC 6803; fragment containing ndhH cloned into pET28a; also called His-tagged NdhH; source: E. coli BL21(DE3) pLysS, purified (nickel column)
T2 sequence (looked up): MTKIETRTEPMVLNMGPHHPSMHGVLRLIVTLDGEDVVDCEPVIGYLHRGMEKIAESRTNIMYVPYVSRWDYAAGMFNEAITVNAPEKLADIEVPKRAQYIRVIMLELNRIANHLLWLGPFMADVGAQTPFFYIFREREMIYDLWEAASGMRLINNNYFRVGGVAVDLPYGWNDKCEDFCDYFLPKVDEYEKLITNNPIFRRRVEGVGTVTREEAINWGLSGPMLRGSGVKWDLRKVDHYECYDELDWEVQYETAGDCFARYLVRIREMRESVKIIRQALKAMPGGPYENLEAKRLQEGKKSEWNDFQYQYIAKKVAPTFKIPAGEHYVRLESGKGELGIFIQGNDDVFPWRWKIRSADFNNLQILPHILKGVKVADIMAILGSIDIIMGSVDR

T1 sequence (P26525 whole entry, the tested form may be a part): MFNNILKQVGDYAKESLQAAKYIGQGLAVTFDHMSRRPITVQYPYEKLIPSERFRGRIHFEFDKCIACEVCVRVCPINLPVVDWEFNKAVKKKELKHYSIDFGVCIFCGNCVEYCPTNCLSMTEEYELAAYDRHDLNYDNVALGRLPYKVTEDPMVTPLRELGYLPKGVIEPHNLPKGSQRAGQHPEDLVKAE

B1: GST-NdhM (natural protein, Synechocystis sp. PCC 6803, UniProt P74338 1-121, looked up)
chain: MLVKSTTRHVRIFSAEVQGNELIPSNNVLTMDVDPDNEFVWNEDALQQVYRRFDELVESYSGEDLTDYNLRRIGSDLEHFIRDLLQAGKVSYNLDCRVLNYSMGLPKVENQETAGKYWLDN
notes: NdhM subunit of NDH-1, Synechocystis sp; PCC 6803, gene slr1623 (ndhM); fragment containing ndhM cloned into pGEX-4T-1; also called recombinant NdhM fused with GST; NdhM fused to GST; source: E. coli BL21(DE3) pLysS, purified (glutathione-Sepharose 4B column)
binding result [1]: binds
binding result [2]: binds
